Source: article PMC10916880 (Molecular Biology of the Cell, 2024)

Legend:
[1] = molecular target: microtubules assembled from purified beta-R380C yeast tubulin (Tub1/Tub2-R380C) (yeast, UniProt P09733 1-447; P02557 1-457, R380C); assay: single-molecule TIRF microscopy of kinesin-GFP on surface-attached microtubules
[2] = molecular target: microtubules assembled from purified wildtype yeast tubulin (Tub1/Tub2 heterodimer) (yeast, UniProt P09733 1-447; P02557 1-457); assay: as above

Row | Binder | increase in binding frequency relative to wildtype microtubules [1] [%] | plus-end dwell time relative to wildtype microtubules [1] [fold] | increase in plus-end dwell time relative to wildtype microtubules [1] [%] | plus-end dwell time relative to wildtype microtubules, high salt [1] [fold] | fold increase in binding relative to full-length Kif21a [2] [fold]
1 | full-length mouse Kif21a fused to GFP (natural protein, UniProt Q9QXL2 1-1672, looked up) MLGAADESSVRVAVRIRPQLAKEKIEGCHICTSVTPGEPQVFLGKDKAFTFDYVFDIDSQQEQIYTQCIEKLIEGCFEGYNATVFAYGQTGAGKTYTMGTGFDVNIMEEEQGIISRAVRHLFKSIDEKKTSAIKNGLPPPEFKVNAQFLELYNEEVLDLFDTTRDIDAKNKKSNIRIHEDSTGGIYTVGVTTRTVNTEPEMMQCLKLGALSRTTASTQMNVQSSRSHAIFTIHVCQTRVCPQTDAENATDNKLISESSPMNEFETLTAKFHFVDLAGSERLKRTGATGERAKEGISINCGLLALGNVISALGDKSKRATHVPYRDSKLTRLLQDSLGGNSQTIMIACVSPSDRDFMETLNTLKYANRARNIKNKVMVNQDRASQQINALRSEITRLQMELMEYKTGKRIIDEEGVESINDMFHENAMLQTENNNLRVRIKAMQETVDALRARITQLVSEQANQVLARAGEGNEEISNMIHSYIKEIEDLRAKLLESEAVNENLRKNLTRATARSPYFSASSAFSPTILSSDKETIEIIDLAKKDLEKLKRKEKKKKKRLQKLEESGREERSVAGKDDNADTDQEKKEEKGVSEKENNELDVEENQEVSDHEDEEEEEEDEEEEDDIEGEESSDESDSESDEKANYQADLANITCEIAIKQKLIDELENSQKRLQTLKKQYEEKLMMLQHKIRDTQLERDQVLQNLGSVESYSEEKAKKVKCEYEKKLHAMNKELQRLQTAQKEHARLLKNQSQYEKQLKKLQQDVMEMKKTKVRLMKQMKEEQEKARLTESRRNREIAQLKKDQRKRDHQLRLLEAQKRNQEVVLRRKTEEVTALRRQVRPMSDKVAGKVTRKLSSSESPAPDTGSSAASGEADTSRPGTQQKMRIPVARVQALPTPTTNGTRKKYQRKGFTGRVFTSKTARMKWQLLERRVTDIIMQKMTISNMEADMNRLLRQREELTKRREKLSKRREKIVKESGEGDKSVANIIEEMESLTANIDYINDSIADCQANIMQMEEAKEEGETLDVTAVINACTLTEARYLLDHFLSMGINKGLQAAQKEAQIKVLEGRLKQTEITSATQNQLLFHMLKEKAELNPELDALLGHALQDLDGAPPENEEDSSEEDGPLHSPGSEGSTLSSDLMKLCGEVKPKNKARRRTTTQMELLYADSSEVASDTSAGDASLSGPLAPVAEGQEIGMNTETSGTSARDKELLAPSGLPSKIGSISRQSSLSEKKVPEPSPVTRRKAYEKADKPKAKEHKHSDSGASETSLSPPSSPPSRPRNELNVFNRLTVPQGTPSVQQDKSDESDSSLSEVHRGIINPFPACKGVRASPLQCVHIAEGHTKAVLCVDSTDDLLFTGSKDRTCKVWNLVTGQEIMSLGVHPNNVVSVKYCNYTSLVFTVSTSYIKVWDIRESAKCIRTLTSSGQVTLGEACSASTSRTVAIPSGESQINQIALNPTGTFLYAASGNAVRMWDLKRFQSTGKLTGHLGPVMCLTVDQISNGQDLIITGSKDHYIKMFDVTEGALGTVSPTHNFEPPHYDGIEALAIQGDNLFSGSRDNGIKKWDLAQKGLLQQVPNAHKDWVCALGLVPGHPVLLSGCRGGILKLWNVDTFVPVGEMRGHDSPINAICVNSTHVFTAADDRTVRIWKAHNLQDGQLSDTGDLGEDIASN | 29 | 2 | – | – | –
2 | truncated mouse Kif21a-917 fused to GFP (domain or fragment, UniProt Q9QXL2 1-917, looked up) MLGAADESSVRVAVRIRPQLAKEKIEGCHICTSVTPGEPQVFLGKDKAFTFDYVFDIDSQQEQIYTQCIEKLIEGCFEGYNATVFAYGQTGAGKTYTMGTGFDVNIMEEEQGIISRAVRHLFKSIDEKKTSAIKNGLPPPEFKVNAQFLELYNEEVLDLFDTTRDIDAKNKKSNIRIHEDSTGGIYTVGVTTRTVNTEPEMMQCLKLGALSRTTASTQMNVQSSRSHAIFTIHVCQTRVCPQTDAENATDNKLISESSPMNEFETLTAKFHFVDLAGSERLKRTGATGERAKEGISINCGLLALGNVISALGDKSKRATHVPYRDSKLTRLLQDSLGGNSQTIMIACVSPSDRDFMETLNTLKYANRARNIKNKVMVNQDRASQQINALRSEITRLQMELMEYKTGKRIIDEEGVESINDMFHENAMLQTENNNLRVRIKAMQETVDALRARITQLVSEQANQVLARAGEGNEEISNMIHSYIKEIEDLRAKLLESEAVNENLRKNLTRATARSPYFSASSAFSPTILSSDKETIEIIDLAKKDLEKLKRKEKKKKKRLQKLEESGREERSVAGKDDNADTDQEKKEEKGVSEKENNELDVEENQEVSDHEDEEEEEEDEEEEDDIEGEESSDESDSESDEKANYQADLANITCEIAIKQKLIDELENSQKRLQTLKKQYEEKLMMLQHKIRDTQLERDQVLQNLGSVESYSEEKAKKVKCEYEKKLHAMNKELQRLQTAQKEHARLLKNQSQYEKQLKKLQQDVMEMKKTKVRLMKQMKEEQEKARLTESRRNREIAQLKKDQRKRDHQLRLLEAQKRNQEVVLRRKTEEVTALRRQVRPMSDKVAGKVTRKLSSSESPAPDTGSSAASGEADTSRPGTQQKMRIPVARVQALPTPTTNGTRKKYQRKGFTGRVFT | 31 | – | 45 | ~2 | ~100
